Laboratory results reported in patent publication US7608265B2, “Treatment for bacterial infections” (priority 2004, dated 2009).
In brackets after ≈: the same amount, converted by molar mass. Read-outs that look alike come from different tables or passages of the source.

Experiments:
[1] = tested on: Vancomycin resistant Enterococcus faecium; assay: Combination drug MIC (checkerboard), Enterococcus faecium; format: cell-based
[2] = tested on: Clostridium difficile NCR 1104; assay: microbe, parasite or virus in culture; format: cell-based
C. difficile 14000287 = assay: Combination drug MIC (checkerboard), C. difficile 14000287, Brucella broth; format: cell-based, Clostridium difficile
C. difficile NCTC 11204 = assay: Combination drug MIC (checkerboard), C. difficile NCTC 11204, RCM; format: cell-based, Clostridium difficile
Clostridium difficile = assay: Growth of Clostridium difficile in the presence of SCFA and H1L1 (OD600); format: cell-based; settings: for Mean Optical Density at 24 Hours: OD600
Procedure: The three SCFAs used were acetate, propionate and butyrate.
Each was prepared to a concentration of 1 M as follows: • Sodium acetate FW 82.03-82.03 g in 1 litre dH2O • Sodium butyrate FW 110.09-110.09 g in 1 litre dH2O • Sodium propionate FW 96.06-96.06 g in 1 litre dH2O
The three solutions were combined in a ratio of 70:20:10 respectively. Therefore, in the final solution the concentrations were sodium acetate 0.7 M, sodium butyrate 0.2 M and sodium propionate 0.1 M. The final concentration of total SCFA was 1 M.
From this stock solution concentrations of 5, 10, 20, 30, 40 and 50 mM total SCFA were prepared using reinforced clostridial medium (RCM, DIFCO).
Reinforced clostridial medium (RCM) was prepared according to the manufacturers instructions: 38 g in 1 litre dH2O
Cultures were only removed from anaerobic conditions immediately prior to use.
An overnight suspension of C. difficile was made by inoculation 10 ml of RCM medium with colonies from a 48 hour old Columbia Blood Agar plate of the organism. The suspension was incubated for 24 hours at 37° C. under anaerobic conditions.
In a flat-bottomed 96 well microtitre plate control solutions (200 μl) were placed in the wells as outlined below in Table 4. Each control used 3 wells.
In a flat-bottomed 96 well microtitre plate (rows labelled A-H, columns labelled 1-12) test solutions (100 μl) were placed in the wells as detailed below. The two test solutions, SCFA plus H1L1, give a combined volume of 200 μl. Each test used 2 wells. […] Wells in columns 1 and 2 contained 16 μg/ml H1L1; in columns 3 and 4, 8 μg/ml H1L1; in columns 5 and 6, 4 μg/ml H1L1; in columns 7 and 8, 2 μg/ml H1L1; in columns 9 and 10, 1 μg/ml H1L1; in columns 11 and 12, 0.5 μg/ml H1L1. Row G was empty. 200 μl RCM was placed into all the wells in row H as a growth control for the plate.
The overnight suspension, culture at late log phase, was used to inoculate the microtitre plates. 20 μl (approx 10% inoculum) was added to all the wells, except for the media/negative control on the control plate.
Plates were incubated at 37° C. under anaerobic conditions for 24 hours.
Optical density readings (OD600 nm) were made at time points zero and 24 hours. Average OD600 nm readings were determined.

[3] = tested on: C. difficile acetyl-CoA acetyl transferase (thiolase); assay: Immunoblot of H1L1 against cloned acetyl-CoA acetyl transferase; format: binding, Clostridium difficile; settings: H1L1 at 1:10 (approximately 400 μg/ml), purified His-tag thiolase, band just under 50 kD marker
Sequence of C. difficile acetyl-CoA acetyl transferase (thiolase) (as listed by the source): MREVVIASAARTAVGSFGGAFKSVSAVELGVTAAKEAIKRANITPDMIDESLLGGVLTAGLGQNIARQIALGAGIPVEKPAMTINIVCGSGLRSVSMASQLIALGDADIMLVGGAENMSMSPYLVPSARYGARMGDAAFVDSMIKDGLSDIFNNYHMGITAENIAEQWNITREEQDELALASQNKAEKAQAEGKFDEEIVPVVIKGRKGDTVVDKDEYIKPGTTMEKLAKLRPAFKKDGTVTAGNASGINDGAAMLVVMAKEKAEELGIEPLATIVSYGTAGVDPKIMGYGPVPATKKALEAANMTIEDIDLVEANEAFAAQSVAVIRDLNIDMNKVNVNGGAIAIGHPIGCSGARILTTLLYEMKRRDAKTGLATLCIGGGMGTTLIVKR
Procedure: Cloned and purified acetyl-CoA acetyl transferase was mixed 1:1 with loading buffer and DTT and put on heating block at 90° C. for 5 minutes. 5-15 μl was separated for 35 minutes on a 10% BisTris gel (Invitrogen) using NuPAGE-MES SDS running buffer (Invitrogen).
The proteins were transblotted onto Invitrolon PVDF membrane (Invitrogen Ltd, Carlsbad, Calif., USA) and blocked in 5% skimmed milk in 0.1% Tween20 in 10 mM PBS for 1 hour. The membrane was incubated with H1L1 at 1:10 (concentration approximately 400 μg/ml) in 0.1% Tween20 in 10 mM PBS for 1 hour. Washed three times for 5 minutes with 0.1% Tween20 in 10 mM PBS and then incubated for one hour with S-protein HRP conjugate (Novagen) at 1:1000.

[4] = gentamicin + H1L1 combination, Brucella broth
[5] = 8 μg/ml of H1L1 and SCFA from 10-50 mM

CN[C@H](CC(C)C)C(=O)N[C@H]1C(=O)N[C@@H](CC(N)=O)C(=O)N[C@H]2C(=O)N[C@H]3C(=O)N[C@H](C(=O)N[C@H](C(=O)O)c4cc(O)cc(O)c4-c4cc3ccc4O)[C@H](O)c3ccc(c(Cl)c3)Oc3cc2cc(c3O[C@@H]2O[C@H](CO)[C@@H](O)[C@H](O)[C@H]2O[C@H]2C[C@](C)(N)[C@H](O)[C@H](C)O2)Oc2ccc(cc2Cl)[C@H]1O [Vancomycin, vancomycin]
FICI [1]: 0.37 | MIC (μg/ml) of each agent Combination [1]: 16 µg/mL | Outcome [1]: Synergy | MIC ([1]; Enterococcus faecium, 24 h, read-out: MIC (μg/ml) of each agent Alone): 128 µg/mL | FICI [2]: 0.125 | MIC (μg/ml) of each agent Combination [2]: 0.125 µg/mL | Outcome [2]: Synergy | MIC ([2]; Clostridioides difficile, NCR1104, 48 h, read-out: MIC (μg/ml) of each agent Alone): 1 µg/mL (≈ 0.69 µM)

gentamicin [reference compound]
MIC (μg/ml) of each agent Alone (C. difficile 14000287; Brucella broth): 8 µg/mL | FIC (μg/ml) (C. difficile 14000287; [4]): 0.25 | FICI (C. difficile 14000287; [4]): 0.266 | MIC (μg/ml) of each agent Combination (C. difficile 14000287; [4]): 2 µg/mL | Outcome (C. difficile 14000287; [4]): Synergy | MIC (μg/ml) of each agent Alone (C. difficile NCTC 11204): 16 µg/mL | FIC (μg/ml) (C. difficile NCTC 11204; gentamicin + H1L1 combination): 0.25 | FICI (C. difficile NCTC 11204; gentamicin + H1L1 combination): 0.375 | MIC (μg/ml) of each agent Combination (C. difficile NCTC 11204; gentamicin + H1L1 combination): 4 µg/mL | Outcome (C. difficile NCTC 11204; gentamicin + H1L1 combination): Synergy

B1: H1L1: synthetic antibody S Tag-CDH1-Linker-CDL1-His Tag, SEQ ID NO: 41, from dominant VH and VL of C. difficile patients; binds acetyl-CoA acetyltransferase (protein)
chain: EVQLVESGPGLVKPSETLSLTCTVSGGSVSSGSYSWSWIRQRPGQGLEWIGFIYYTGYTSYKSSLKSRVSLSVDTSNDQFSLSLSSVTAADTAVYYCAREIRAPDHHDFSGYLGRWGQGTLVTVSSGGSGGGGSGGGGSASKSSELTQDPAVSVALGQTVRITCQGDSLRSYYASWYQQKPGQAPVLVIYGKNNRPSGIPDRFSGSSSGNTASLTITGAQAEDEADYYCNSRDSTGNQLFGGGTKVTVLG
modifications: synthetic H1L1 antibody
Interaction of H1L1 and SCFA (Clostridium difficile; [5]): Synergy | optical density at 24 hours (Clostridium difficile; [5]): 0.296-0.330 | Effect on growth (Clostridium difficile; 16 μg/ml of H1L1 alone): inhibition | Effect on growth (Clostridium difficile; 0.5, 1, 2, 4 and 8 μg/ml of H1L1 alone): No effect | Interaction of H1L1 and SCFA (Clostridium difficile; 1, 2 and 4 μg/ml of H1L1 and 5 mM of SCFA (data not shown)): Indifference | Mean Optical Density at 24 Hours (Clostridium difficile; H1L1 0.5 μg/ml alone): 0.450 | Mean Optical Density at 24 Hours (Clostridium difficile; H1L1 1 μg/ml alone): 0.440 | Mean Optical Density at 24 Hours (Clostridium difficile; H1L1 2 μg/ml alone): 0.440 | Mean Optical Density at 24 Hours (Clostridium difficile; H1L1 4 μg/ml alone): 0.440 | Mean Optical Density at 24 Hours (Clostridium difficile; H1L1 8 μg/ml + SCFA 10 mM): 0.310 | Mean Optical Density at 24 Hours (Clostridium difficile; H1L1 8 μg/ml + SCFA 20 mM): 0.296 | Mean Optical Density at 24 Hours (Clostridium difficile; H1L1 8 μg/ml + SCFA 30 mM): 0.305 | Mean Optical Density at 24 Hours (Clostridium difficile; H1L1 8 μg/ml + SCFA 40 mM): 0.310 | Mean Optical Density at 24 Hours (Clostridium difficile; H1L1 8 μg/ml + SCFA 50 mM): 0.330 | Mean Optical Density at 24 Hours (Clostridium difficile; H1L1 8 μg/ml alone): 0.420 | Mean Optical Density at 24 Hours (Clostridium difficile; H1L1 16 μg/ml + SCFA 10 mM): 0.308 | Mean Optical Density at 24 Hours (Clostridium difficile; H1L1 16 μg/ml + SCFA 20 mM): 0.228 | Mean Optical Density at 24 Hours (Clostridium difficile; H1L1 16 μg/ml + SCFA 30 mM): 0.308 | Mean Optical Density at 24 Hours (Clostridium difficile; H1L1 16 μg/ml + SCFA 40 mM): 0.303 | Mean Optical Density at 24 Hours (Clostridium difficile; H1L1 16 μg/ml + SCFA 50 mM): 0.281 | Mean Optical Density at 24 Hours (Clostridium difficile; H1L1 16 μg/ml alone): 0.334 | Outcome of combination (C. difficile 14000287; H1L1 and vancomycin versus C. difficile 14000287): synergy (synergy was defined by a value of <=0.5) | MIC (μg/ml) of each agent Alone (C. difficile 14000287; Brucella broth): 512 µg/mL | FIC (μg/ml) (C. difficile 14000287; [4]): 0.0156 | MIC (μg/ml) of each agent Combination (C. difficile 14000287; [4]): 8 µg/mL | Outcome (C. difficile 14000287; [4]): synergy (synergy was defined by a value of <=0.5) | MIC (μg/ml) of each agent Alone (C. difficile NCTC 11204): 512 µg/mL | FIC (μg/ml) (C. difficile NCTC 11204; gentamicin + H1L1 combination): 0.125 | MIC (μg/ml) of each agent Combination (C. difficile NCTC 11204; gentamicin + H1L1 combination): 64 µg/mL | Outcome (C. difficile NCTC 11204; gentamicin + H1L1 combination): synergy (synergy was defined by a value of <=0.5) | MIC (μg/ml) of each agent Alone ([1]; agent alone, 24 h): 512 µg/mL | FIC (μg/ml) ([1]; vancomycin + H1L1 combination): 0.25 | MIC (μg/ml) of each agent Combination ([1]; vancomycin + H1L1 combination): 128 µg/mL | Outcome ([1]; vancomycin + H1L1 combination): synergy (synergy was defined by a value of <=0.5) | FIC (μg/ml) [2]: 0.0004 | MIC (μg/ml) of each agent Combination [2]: 0.25 µg/mL | Outcome [2]: synergy (key: synergy was defined by a value of <=0.5; indifference was defined by a value of >0.5 to <4; antagonism was defined by a value of >=4.0) | Immunoblot response to the thiolase band [3]: strong response
